What was measured:
Assay in all cases: SPR (Biacore 2000), mAb captured on anti-human IgG Fc, analyte in solution, 25 C, 1:1 Langmuir
[1] = molecular target: soluble human IL-6Rc (shuIL-6Rc) recombinant fusion protein of IL-6R and IL-6 (human) (UniProt P08887)
[2] = molecular target: T1, carrier-free soluble human IL-6R (R&D) (human, UniProt P08887 20-365)
T1 construct: extracellular domain; also called shuIL-6R; shuIL6-R
T1 sequence (looked up): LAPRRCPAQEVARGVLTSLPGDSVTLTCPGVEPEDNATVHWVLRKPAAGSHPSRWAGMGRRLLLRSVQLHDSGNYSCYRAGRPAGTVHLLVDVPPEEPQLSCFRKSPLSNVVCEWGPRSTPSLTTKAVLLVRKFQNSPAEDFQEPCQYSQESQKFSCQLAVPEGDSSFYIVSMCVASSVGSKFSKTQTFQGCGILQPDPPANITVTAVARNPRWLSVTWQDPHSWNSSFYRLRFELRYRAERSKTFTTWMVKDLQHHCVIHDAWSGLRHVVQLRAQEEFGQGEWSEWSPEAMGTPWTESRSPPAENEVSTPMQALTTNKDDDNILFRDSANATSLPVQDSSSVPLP
Method: (§1) A CM5 Biacore chip was used and 1640 RU (response units) of an anti-human IgG Fc (Biacore AB, Uppsala, Sweden) was immobilized by EDC/NHS chemistry. […] The surface was regenerated after each cycle by injection of 3M magnesium chloride at 20 μL/min, for 30 s followed by lmin of stabilization time in HBS-EP buffer (Biacore AB, Uppsala, Sweden). Binding was measured by passing analytes carrier-free soluble human IL-6R (shuIL6-R; R&D), soluble human IL-6Rc (shuIL-6Rc) and soluble cynomolgus monkey IL-6R (scyIL-6R) in duplicates at the following concentrations: 100 nM, 50 nM, 25 nM, 12.5 nM, 6.25 nM and 0nM. All solutions were diluted in HBS-EP buffer. Injection was performed at 50 μl/min for 3 min followed by 12 min of dissociation time and the temperature was set at 25° C.

[3] = molecular target: T2, soluble cynomolgus monkey IL-6R (cynomolgus monkey, UniProt A0A2K5WN54 60-396)
T2 construct: extracellular domain; also called scyIL-6R; soluble cynomolgus monkey IL-6 Receptor; not shown: C-terminal His- or Avi-Tag
T2 sequence: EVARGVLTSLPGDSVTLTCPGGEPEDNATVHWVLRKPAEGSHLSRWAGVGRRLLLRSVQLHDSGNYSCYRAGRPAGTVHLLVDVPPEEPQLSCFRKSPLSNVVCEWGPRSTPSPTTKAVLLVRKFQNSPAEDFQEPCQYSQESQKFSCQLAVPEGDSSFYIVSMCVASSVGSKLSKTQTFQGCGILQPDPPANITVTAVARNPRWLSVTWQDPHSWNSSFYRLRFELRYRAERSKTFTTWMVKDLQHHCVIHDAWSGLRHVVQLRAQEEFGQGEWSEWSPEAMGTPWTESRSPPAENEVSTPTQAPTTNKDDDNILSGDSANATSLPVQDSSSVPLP
Method: as §1

| Binder | Kd [1] [nM] | koff [1] [s⁻¹] | kon [1] [M⁻¹ s⁻¹] | Kd [2] [nM] | koff [2] [s⁻¹] | kon [2] [M⁻¹ s⁻¹] | Kd [3] [nM] | koff [3] [s⁻¹] | kon [3] [M⁻¹ s⁻¹] |
| --- | --- | --- | --- | --- | --- | --- | --- | --- | --- |
| NI-1201-B antibody (antibody, V domains shown) VH: QVQLVQSGAEVKKPGSSVKVSCKASGGTFSSYAISWVRQAPGQGLEWMGGIIPLFDTTKYAQKFQGRVTITADESTSTAYMELSSLRSEDTAVYYCARDRDILTDYYPLGGMDVWGQGTTVTVSS VL: AIQLTQSPSSLSASVGDRVTITCRASQGISSVLAWYQQKPGKAPKLLIYDASSLESGVPSRFSGSGSGTDFTLTISSLQPEDFATYYCQQSNSYPLTFGGGTKVEIKR | 4.43 | 0.000237 | 53400 | 0.107 | 9.4e-05 | 875000 | 1.81 | 0.000207 | 115000 |
| NI-1201-C antibody (antibody, V domains shown) VH: QVQLVQSGAEVKKPGSSVKVSCKASGGTFSSYAISWVRQAPGQGLEWMGGIIPAFETTKYAQKFQGRVTITADESTSTAYMELSSLRSEDTAVYYCARDRDILTDYYPLGGMDVWGQGTTVTVSS VL: AIQLTQSPSSLSASVGDRVTITCRASQGISSVLAWYQQKPGKAPKLLIYDASSLESGVPSRFSGSGSGTDFTLTISSLQPEDFATYYCQQSNSYPLTFGGGTKVEIKR | 5.03 | 0.00024 | 47700 | 0.11 | 0.00011 | 992000 | 2.03 | 0.000225 | 111000 |

More lines, in order of falling Kd [1], values ahead:

| Kd [1] [nM] | koff [1] [s⁻¹] | kon [1] [M⁻¹ s⁻¹] | Kd [2] [nM] | koff [2] [s⁻¹] | kon [2] [M⁻¹ s⁻¹] | Kd [3] [nM] | koff [3] [s⁻¹] | kon [3] [M⁻¹ s⁻¹] | Binder |
| --- | --- | --- | --- | --- | --- | --- | --- | --- | --- |
| 4.92 | 0.000246 | 50100 | 0.121 | 0.00011 | 829000 | 2.05 | 0.000213 | 104000 | NI-1201-A antibody (antibody, V domains shown) VH: QVQLVQSGAEVKKPGSSVKVSCKASGGTFSSYAISWVRQAPGQGLEWMGGIIPLFDTTKYAQKFQGRVTITADESTSTAYMELSSLRSEDTAVYYCARDRDILTDYYPMGGMDVWGQGTTVTVSS VL: AIQLTQSPSSLSASVGDRVTITCRASQGISSVLAWYQQKPGKAPKLLIYDASSLESGVPSRFSGSGSGTDFTLTISSLQPEDFATYYCQQSNSYPLTFGGGTKVEIKR |
| 4.89 | 0.000222 | 45300 | 0.134 | 0.000102 | 761000 | 1.79 | 0.0002 | 112000 | NI-1201-D antibody (antibody, V domains shown) VH: QVQLVQSGAEVKKPGSSVKVSCKASGGTFSSYAISWVRQAPGQGLEWMGGIIPAFETTKYAQKFQGRVTITADESTSTAYMELSSLRSEDTAVYYCARDRDILTDYYPLGGMDVWGQGTTVTVSS VL: AIQLTQSPSSLSASVGDRVTITCRASQGISSVLAWYQQKPGKAPKLLIYDASSLESGVPSRFSGSGSGTDFTLTISSLQPEDFATYYCQQSQSYPLTFGGGTKVEIKR |

Reference: US20160130351A1 (NOVIMMUNE S A, published 2016)
